{"source": "patent US7205275", "about": "(dated 2007)", "binders": {"B1": {"name": "human Ang-1 (protein)", "chain": "SNQRRSPENSGRRYNRIQHGQCAYTFILPEHDGNCRESTTDQYNTNALQRDAPHVEPDFSSQKLQHLEHVMENYTQWLQKLENYIVENMKSEMAQIQQNAVQNHTATMLEIGTSLLSQTAEQTRKLTDVETQVLNQTSRLEIQLLENSLSTYKLEKQLLQQTNEILKIHEKNSLLEHKILEMEGKHKEELDTLKEEKENLQGLVTRQTYIIQELEKQLNRATTNNSVLQKQQLELMDTVHNLVNLCTKEGVLLKGGKREEEKPFRDCADVYQAGFNKSGIYTIYINNMPEPKKVFCNMDVNGGGWTVIQHREDGSLDFQRGWKEYKMGFGNPSGEYWLGNEFIFAITSQRQYMLRIELMDWEGNRAYSQYDRFHIGNEKQNYRLYLKGHTGTAGKQSSLILHGADFSTKDADNDNCMCKCALMLTGGWWFDACGPSNLNGMFYTAGQNHGKLNGIKWHYFKGPSYSLRSTTMMIRPLDF"}, "B2": {"name": "mouse Ang-2 (protein)", "chain": "YSNFRKSVDSTGRRQYQVQNGPCSYTFLLPETDSCRSSSSPYMSNAVQRDAPLDYDDSVQRLQVLENILENNTQWLMKLENYIQDNMKKEMVEIQQNVVQNQTAVMIEIGTSLLNQTAAQTRKLTDVEAQVLNQTTRLELQLLQHSISTNKLEKQILDQTSEINKLQNKNSFLEQKVLDMEGKHSEQLQSMKEQKDELQVLVSKQSSVIDELEKKLVTATVNNSLLQKQQHDLMETVNSLLTMMSSPNSKSSVAIRKEEQTTFRDCAEIFKSGLTTSGIYTLTFPNSTEEIKAYCDMDVGGGGWTVIQHREDGSVDFQRTWKEYKEGFGSPLGEYWLGNEFVSQLTGQHRYVLKIQLKDWEGNEAHSLYDHFYLAGEESNYRIHLTGLTGTAGKISSISQPGSDFSTKDSDNDKCICKCSQMLSGGWWFDACGPSNLNGQYYPQKQNTNKFNGIKWYYWKGSGYSLKATTMMIRPADF"}, "B3": {"name": "PEG3.4K(L1-7 Peptide)2 (peptide)", "chain": "CGGGGGAQTNFMPMDDLEQRLYEQFILQQGLE", "modifications": "not fully specified (residue 1); printed as C-GGGGG-AQ-TNFMPMDDLEQRLYEQFILQQG-LE; also: dimer linked by PEG 3.4K via N-terminal Cys"}, "B4": {"name": "mPEG5K-(L1-7 Peptide) (peptide)", "chain": "C(mPEG 5K)GGGGGAQTNFMPMDDLEQRLYEQFILQQGLE"}, "B5": {"name": "Con4 (N) (peptide)", "chain": "MGAQQEECEWDPWTCEHMLEGGGGG[Fc]", "modifications": "not fully specified (bridges); printed as MGAQQEECEWDPWTCEHMLEGGGGG-Fc; cysteine pairing not given here; also: Fc fusion domain at position 26"}, "B6": {"name": "human Ang-2 (protein)", "chain": "YNNFRKSMDSIGKKQYQVQHGSCSYTFLLPEMDNCRSSSSPYVSNAVQRDAPLEYDDSVQRLQVLENIMENNTQWLMKLENYIQDNMKKEMVEIQQNAVQNQTAVMIEIGTNLLNQTAEQTRKLTDVEAQVLNQTTRLELQLLEHSLSTNKLEKQILDQTSEINKLQDKNSFLEKKVLAMEDKHIIQLQSIKEEKDQLQVLVSKQNSIIEELEKKIVTATVNNSVLQKQQHDLMETVNNLLTMMSTSNSAKDPTVAKEEQISFRDCAEVFKSGHTTNGIYTLTFPNSTEEIKAYCDMEAGGGGWTIIQRREDGSVDFQRTWKEYKVGFGNPSGEYWLGNEFVSQLTNQQRYVLKIHLKDWEGNEAYSLYEHFYLSSEELNYRIHLKGLTGTAGKISSISQPGNDFSTKDGDNDKCICKCSQMLTGGWWFDACGPSNLNGMYYPQRQNTNKFNGIKWYYWKGSGYSLKATTMMIRPADF"}}, "key": {"[1]": {"molecular_target": "Negative Control Peptibody 4883", "experiment": "ELISA"}, "[2]": {"molecular_target": "Negative Control Peptibody 4883", "experiment": "ELISA", "remark": "listed apart in the source"}, "human Ang-2 [3]": {"molecular_target": "B6", "experiment": "competition ELISA vs Tie-2"}, "human Ang-2 [4]": {"molecular_target": "B6", "experiment": "SPR"}, "human Ang-1 [5]": {"molecular_target": "B1", "experiment": "competition ELISA vs Tie-2"}, "human Ang-1 [6]": {"molecular_target": "B1", "experiment": "ELISA"}, "mouse Ang-2 [7]": {"molecular_target": "B2", "experiment": "SPR"}, "human Ang-2 [8]": {"molecular_target": "B6", "experiment": "competition ELISA vs Tie-2"}, "mouse Ang-2 [9]": {"molecular_target": "B2", "experiment": "ELISA"}, "human Ang-2 [10]": {"molecular_target": "B6", "experiment": "ELISA"}, "mouse Ang-2 [11]": {"molecular_target": "B2", "experiment": "competition ELISA vs Tie-2"}, "[12]": {"molecular_target": "Negative Control Peptibody 4883", "experiment": "ELISA", "remark": "listed apart in the source"}}, "note": "Read-outs that look alike come from different tables or passages of the source. Where no end group is shown, it is not given here. [ ]: non-standard residue; d: D form. mPEG 5K = methoxy-PEG 5 kDa coupled via the N-terminal cysteine; Fc = immunoglobulin Fc domain fused to the peptide (peptibody)", "data": [{"binder": "B1", "values": [{"measurement": "binding result", "setting": "[1]", "value": "no binding"}]}, {"binder": "B2", "values": [{"measurement": "binding result", "setting": "[2]", "value": "no binding"}]}, {"binder": "B3", "values": [{"measurement": "IC50", "setting": "human Ang-2 [3]", "value": 0.058, "unit": "nM"}]}, {"binder": "B4", "values": [{"measurement": "IC50", "setting": "human Ang-2 [3]", "value": 11.7, "unit": "nM"}]}, {"binder": "B5", "values": [{"measurement": "Kd", "setting": "human Ang-2 [4]", "value": 0.67, "unit": "nM"}, {"measurement": "IC50", "setting": "human Ang-1 [5]", "value": "> 1000", "unit": "nM"}, {"measurement": "binding result", "setting": "human Ang-1 [6]", "value": "no binding"}, {"measurement": "Kd", "setting": "mouse Ang-2 [7]", "value": 0.6, "unit": "nM"}, {"measurement": "IC50", "setting": "human Ang-2 [8]", "value": 0.85, "unit": "nM"}, {"measurement": "EC50", "setting": "mouse Ang-2 [9]", "value": 0.07, "unit": "nM"}, {"measurement": "EC50", "setting": "human Ang-2 [10]", "value": 0.03, "unit": "nM"}, {"measurement": "IC50", "setting": "mouse Ang-2 [11]", "value": 0.72, "unit": "nM"}]}, {"binder": "B6", "values": [{"measurement": "binding result", "setting": "[12]", "value": "no binding"}]}]}
